According to paper PMC11410209:

Biological target: 2526 IgG3
Test: ELISA
Details: read at the highest mAb concentration, 10 µg/ml; parent: est. 4.0; read off a plot

BG505.SOSIP with a glycan at position 332 (Fig 5C) N332T
response: 3.1 Abs (450nm)
